Test results published in patent publication US20240034813A1 (Janssen / Centocor, published 2024).

Columns and labels:
[1] = biological target: T1, recombinant human EGFR/ErbB1/HER1 with C-terminal His tag, Cy5-labeled (human, UniProt P00533 25-645, Cy5 label (reacted with Cy5 Mono NHS Ester; sites not stated)); test: competitive TR-FRET (Eu-amivantamab/Cy5-EGFR), EC50 ratio vs Reference Material; Ex. 3 acetate formulation, 6 months at 25 C then 5 freeze/thaw cycles
T1 construct: Commercial protein; also called Cy5-EGFR; Cy5-labeled EGFR antigen; not shown: C-terminal His tag
From the text: (§1) In this procedure, varying concentrations of unlabeled bispecific EGFR-cMet antibody sample compete with donor fluorophore (Europium (Eu) chelate) labeled bispecific EGFR-cMet antibody for binding to an acceptor fluorophore (Cy5)-labeled EGFR antigen. Excitation of the donor fluorophore results in a transfer of energy to the bound acceptor fluorophore (FRET process). The resultant FRET is detected by emission of light at 665 nm using a microplate reader capable of measuring time-resolved fluorescence. Sample dose response curves are compared to the RM.
(§2) EGFR Binding Materials and Methods. Certified commercial EGFR, a recombinant human EGFR/ErbB1/HER1 with C-terminal His tag is reacted with certified commercial Cy5 Mono NHS Ester to produce Cy5-labeled EGFR. Validated bispecific EGFR-cMet antibody is reacted with certified commercial Europium (Eu) chelate to produce Eu-labeled bispecific EGFR-cMet antibody. […] Fluorescence is then measured by spectrophotometry at 665 nm, plotted against antibody concentration and analyzed by a four-parameter logistic model. The antibody concentration required to obtain half of the maximum fluorescence response (EC50) is determined for RM, assay control and samples. The potencies of assay control and samples are calculated based on the ratio of the sample (or control) and RM EC50 values and reported as a percentage activity relative to the RM.

[2] = biological target: T1, recombinant human EGFR/ErbB1/HER1 with …; test: competitive TR-FRET (Eu-amivantamab/Cy5-EGFR), EC50 ratio vs Reference Material; Ex. 2 Formulation 1 (10 mM histidine), T0, 5 C table
From the text: as §1, §2

[3] = biological target: T1, recombinant human EGFR/ErbB1/HER1 with …; test: competitive TR-FRET (Eu-amivantamab/Cy5-EGFR), EC50 ratio vs Reference Material; Ex. 11 drug product, 6 months at 5 C
From the text: as §1, §2

[4] = biological target: T2, recombinant cMet/HGFR with c-terminal His-tag, Cy5-labeled (UniProt P08581 25-932, limits assumed, Cy5 label (reacted with Cy5 Mono NHS Ester; sites not stated)); test: competitive TR-FRET (Eu-amivantamab/Cy5-c-MET), EC50 ratio vs Reference Material; Ex. 11 drug product, 5 months at 5 C
T2 construct: Commercial protein; also called Cy5-c-MET; Cy5-labeled c-MET antigen; not shown: C-terminal His-tag
From the text: as §1, with “(Cy5)-labeled c-MET” for “(Cy5)-labeled EGFR”, “the Reference Material (RM).” for “the RM.”
as §2, with “c-MET Binding” for “EGFR Binding”, “commercial cMet,” for “commercial EGFR,”, “recombinant cMet/HGFR” for “recombinant human EGFR/ErbB1/HER1”, “with c-terminal His-tag” for “with C-terminal His tag”, “Cy5-labeled c-MET.” for “Cy5-labeled EGFR.”, “produce Eu labeled” for “produce Eu-labeled”

[5] = biological target: T2, recombinant cMet/HGFR with c-terminal …; test: competitive TR-FRET (Eu-amivantamab/Cy5-c-MET), EC50 ratio vs Reference Material; Ex. 11 drug product, 6 months at 5 C
From the text: as §1, with “(Cy5)-labeled c-MET” for “(Cy5)-labeled EGFR”, “the Reference Material (RM).” for “the RM.”
as §2, with “c-MET Binding” for “EGFR Binding”, “commercial cMet,” for “commercial EGFR,”, “recombinant cMet/HGFR” for “recombinant human EGFR/ErbB1/HER1”, “with c-terminal His-tag” for “with C-terminal His tag”, “Cy5-labeled c-MET.” for “Cy5-labeled EGFR.”, “produce Eu labeled” for “produce Eu-labeled”

[6] = biological target: T2, recombinant cMet/HGFR with c-terminal …; test: competitive TR-FRET (Eu-amivantamab/Cy5-c-MET), EC50 ratio vs Reference Material; Ex. 2 Formulation 1 (10 mM histidine), 3 months at 5 C
From the text: as §1, with “(Cy5)-labeled c-MET” for “(Cy5)-labeled EGFR”, “the Reference Material (RM).” for “the RM.”
as §2, with “c-MET Binding” for “EGFR Binding”, “commercial cMet,” for “commercial EGFR,”, “recombinant cMet/HGFR” for “recombinant human EGFR/ErbB1/HER1”, “with c-terminal His-tag” for “with C-terminal His tag”, “Cy5-labeled c-MET.” for “Cy5-labeled EGFR.”, “produce Eu labeled” for “produce Eu-labeled”

EGFR Binding % activity relative to RM [1]: 95%
EGFR Binding % activity relative to RM [2]: 103%
EGFR Binding activity relative to Reference Material (%) [3]: 84%
cMET Binding activity relative to Reference Material (%) [4]: 108%
cMET Binding activity relative to Reference Material (%) [5]: 86%
cMET Binding % activity relative to RM [6]: 100%
B1: amivantamab (bispecific antibody, human IgG1, kappa)
heavy 1: not shown
light 1: not shown
heavy 2: not shown
light 2: DIQMTQSPSSVSASVGDRVTITCRASQGISNWLAWFQHKPGKAPKLLIYAASSLLSGVPSRFSGSGSGTDFTLTISSLQPEDFATYYCQQANSFPITFGQGTRLEIKRTVAAPSVFIFPPSDEQLKSGTASVVCLLNNFYPREAKVQWKVDNALQSGNSQESVTEQDSKDSTYSLSSTLTLSKADYEKHKVYACEVTHQGLSSPVTKSFNRGEC
notes: The samples tested were high concentration (160 mg/mL) formulations, fresh or stored or stressed; also called JNJ-61186372; bispecific EGFR-cMet antibody
